This note sets out measurements from article doi:10.1101/2025.08.03.668247, “The structure of Egalitarian in complex with the K10 mRNA localization signal reveals a modular binding surface required for function”.

For series [1], the target named is T1, GST-Egl512-819 (Drosophila melanogaster, UniProt Q9W1K4 512-819).
T1 sequence: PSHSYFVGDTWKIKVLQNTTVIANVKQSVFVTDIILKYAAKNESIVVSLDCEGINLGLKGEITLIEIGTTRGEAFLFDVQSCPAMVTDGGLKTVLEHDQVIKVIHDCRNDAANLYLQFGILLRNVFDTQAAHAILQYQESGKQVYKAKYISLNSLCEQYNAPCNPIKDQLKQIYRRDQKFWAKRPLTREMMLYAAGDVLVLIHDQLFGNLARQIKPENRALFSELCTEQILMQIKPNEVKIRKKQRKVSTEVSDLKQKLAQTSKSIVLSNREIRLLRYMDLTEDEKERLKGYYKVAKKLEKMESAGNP
The experiment in a line: fluorescence anisotropy; FA: 20 mM HEPES-NaOH pH 7.5, 100 mM NaCl, 10% glycerol, 20 C, 10 nM FAM-RNA; competition: 150 nM Egl512-819 + 10 nM FAM-K10 TLS, same buffer. To be noted: protein: recombinant, tags: N-terminal GST (TEV site).

For series [2], the target named is T1, GST-Egl512-819. Description: competition; vs FAM-K10 TLS; FA: 20 mM HEPES-NaOH pH 7.5, 100 mM NaCl, 10% glycerol, 20 C, 10 nM FAM-RNA; competition: 150 nM Egl512-819 + 10 nM FAM-K10 TLS, same buffer. To be noted: protein: recombinant, tags: N-terminal GST (TEV site).
The target in series [3] is T1, GST-Egl512-819. Description: fluorescence anisotropy; listed as K10-10nt; FA: 20 mM HEPES-NaOH pH 7.5, 100 mM NaCl, 10% glycerol, 20 C, 10 nM FAM-RNA; competition: 150 nM Egl512-819 + 10 nM FAM-K10 TLS, same buffer. To be noted: protein: recombinant; tags: N-terminal GST (TEV site); label: 5'-FAM in direct assay; hairpin, 3' overhang 10 nt.
For series [4], the target named is T1, GST-Egl512-819. The experiment in a line: competition; vs FAM-K10 TLS; none at 40,000-fold excess; FA: 20 mM HEPES-NaOH pH 7.5, 100 mM NaCl, 10% glycerol, 20 C, 10 nM FAM-RNA; competition: 150 nM Egl512-819 + 10 nM FAM-K10 TLS, same buffer. To be noted: protein: recombinant; tags: N-terminal GST (TEV site).
Setting [5] is: label: 5'-FAM in direct assay, hairpin.

On to GAAUUAAACAUCAAAAAUUCUUAAUUAAAUUUUUAUGUUAGUUC (structured_RNA) [K10-as], for which, in series [1] (setting [5]), the dissociation constant Kd (as a rule, the constant that tells how readily two partners part at equilibrium) is 102 ± 6 nM.

B1: dsDNA (dsDNA)
DNA 1: AGGCAGTTTCTGGTACTCAG
DNA 2: CTGAGTACCAGAAACTGCCT
With B1, in series [2] (blunt), the IC50 (usually the concentration that gives 50% inhibition) was determined as 8890 ± 933 nM.

B2: dsRNA (dsRNA)
RNA 1: UGAGUGCCAGAAGCUGCCUC
RNA 2: GAGGCAGCUUCUGGCACUCA
On to B2, for which, in series [1] (blunt), the Kd was determined as 192 ± 7 nM.

B3: K10-flank (K10-10nt) (structured_RNA)
RNA: CUUGAUUGUAUUUUUAAAUUAAUUCUUAAAAACUACAAAUUAAGAUCACUCUGU
Consider B3, for which the IC50 in series [2] (label: 5'-FAM in direct assay, hairpin, 3' overhang 10 nt) was 53 ± 2 nM. For the same molecule, the Kd in series [3] was 92 ± 13 nM. On to ACAUGAGGAUUACCCAUGU (structured_RNA) [MS2 stem loop], for which the IC50 in series [2] (hairpin) worked out at 142 ± 13 nM.

Take CUUGAUUGUAUUUUUAAAUUAAUUCUUAAAAAUACAAUUAAG (structured_RNA) [K10-Delta b1b2]: the Kd in series [1] (setting [5]) is 172 ± 18 nM. For AGGCAGTTTCTGGTACTCAG (ssDNA) [ssDNA], in series [4], the binding result is “no binding”.

Regarding CUUGAUUGUACUUUUUAAAUUAAUUCUUAAAAAUACAAAUUAAG (structured_RNA) [K10-b1as], the IC50 in series [2] (hairpin) amounted to 63 ± 1 nM.

In the case of AUUGAUUGUACUUUUUAAAUUAAUUCUUAAAAAUACAAAUUAAU (structured_RNA) [K10-b1as-AU], in series [2] (hairpin), the IC50 is 87 ± 8 nM.

B4: bcd_VbL (structured_RNA)
RNA: GGGCCCAAAAUGAAAAAUGUUUCUCUUGGGCGUAAUCUCAUACAAUGAUUACCCUUAAAGAUCGAACAUUUAAACAAUAAUAUUUGGG
B4: the concentration for half-maximal inhibition (IC50) in series [2] (setting [5]) was determined as 31 ± 5 nM. Besides, the Kd in series [1] (setting [5]) turned out to be 123 ± 13 nM.

B5: ARF1 dsRNA (dsRNA)
RNA 1: UGAGUGCCAGAAGCUGCCUC
RNA 2: GAGGCAGUUUCUGGUACUCA
B5: the IC50 in series [2] (blunt, with G-U wobbles) amounted to 102 ± 14 nM. On to AUAUAUAUAUAUAUAUAUAU (ssRNA) [ssRNA (AU20)], for which, in series [1] (label: 5'-FAM), the equilibrium dissociation constant (Kd) is 137 ± 8 nM. Regarding CUUGAUUGUAUUUUUAAAUUAAUUCUUAAAAACUACAAAUUAAG (structured_RNA) [K10 TLS (unlabeled)], the IC50 in series [2] (hairpin with two bulges) turned out to be 53 ± 4 nM. Take AUUGAUUGUAUUUUUAAAUUAAUUCUUAAAAACUACAAAUUAAU (structured_RNA) [K10-AU]: the IC50 in series [2] (hairpin) is 67 ± 4 nM. For GGCUUGAUUGUAUUUUUAAAUUAAUUCUUAAAAACUACAAAUUAAGCC (structured_RNA) [K10-2GC], the IC50 in series [2] (hairpin with two bulges) came out at 57 ± 6 nM.

B6: bcd_VbS (structured_RNA)
RNA: AAAUGUUUCUCUUGGGCGUAAUCUCAUACAAUGAUUACCCUUAAAGAUCGAACAUUU
As to B6, the equilibrium dissociation constant (Kd) in series [1] (label: 5'-FAM, hairpin) was determined as 158 ± 8 nM. In the case of UUUUUUUUUUUUUUUUUUUU (ssRNA) [ssRNA (U20)], the dissociation constant Kd in series [1] (label: 5'-FAM) worked out at 175 ± 3 nM.
